Measurements reported in PMC8546710.

Columns and labels:
[1] = target: CDV M protein (strain A75/17) mutant E242Q; experiment: coimmunoprecipitation (coIP efficiency index, Western blot band quantification); settings: 2xHA-M and FLAG-M co-expressed in HEK-293T cells; IP anti-HA, IB anti-M; parent: est. 100; read off a plot
[2] = target: CDV M protein (strain A75/17) mutant G245P; experiment: as above; settings: 2xHA-M and FLAG-M co-expressed in HEK-293T cells; IP anti-HA, IB anti-M; parent: est. 100; read off a plot
[3] = target: CDV M protein (strain A75/17) mutant Y236F; experiment: as above; settings: 2xHA-M and FLAG-M co-expressed in HEK-293T cells; IP anti-HA, IB anti-M; parent: est. 100; read off a plot
[4] = target: CDV M protein (strain A75/17) mutant G245P (canine distemper virus, strain A75/17); experiment: co-IP; FLAG-M and 2×HA-longlinker-M, both bearing the same mutation, cotransfected in HEK-293T; lysed 24 h posttransfection in 50 mM Tris pH 7.4, 150 mM NaCl, 0.05% NP-40, 5% glycerol, 20 mM sodium molybdate; IP with anti-HA (16B12) and Dynabeads Protein G at 4°C; blot with polyclonal anti-CDV M; coIP efficiency index = (coIP/IP)/(ratio in total lysates), normalised to wt = 100%
[5] = target: CDV M protein (strain A75/17) mutant L239D; experiment: coimmunoprecipitation (coIP efficiency index, Western blot band quantification); settings: 2xHA-M and FLAG-M co-expressed in HEK-293T cells; IP anti-HA, IB anti-M; parent: est. 100; read off a plot
[6] = target: CDV M protein (strain A75/17) mutant E89G; experiment: as above; settings: 2xHA-M and FLAG-M co-expressed in HEK-293T cells; IP anti-HA, IB anti-M; parent: est. 100; read off a plot
[7] = target: CDV M protein (strain A75/17) mutant P87A; experiment: as above; settings: 2xHA-M and FLAG-M co-expressed in HEK-293T cells; IP anti-HA, IB anti-M; parent: est. 100; read off a plot
[8] = target: CDV M protein (strain A75/17) mutant E89R; experiment: as above; settings: 2xHA-M and FLAG-M co-expressed in HEK-293T cells; IP anti-HA, IB anti-M; parent: est. 100; read off a plot
[9] = target: CDV M protein (strain A75/17) mutant E89H; experiment: as above; settings: 2xHA-M and FLAG-M co-expressed in HEK-293T cells; IP anti-HA, IB anti-M; parent: est. 100; read off a plot
[10] = target: CDV M protein (strain A75/17) mutant K92E; experiment: as above; settings: 2xHA-M and FLAG-M co-expressed in HEK-293T cells; IP anti-HA, IB anti-M; parent: est. 100; read off a plot
[11] = target: CDV M protein (strain A75/17) mutant E89Y; experiment: as above; settings: 2xHA-M and FLAG-M co-expressed in HEK-293T cells; IP anti-HA, IB anti-M; parent: est. 100; read off a plot
[12] = target: CDV M protein (strain A75/17) mutant K238E; experiment: as above; settings: 2xHA-M and FLAG-M co-expressed in HEK-293T cells; IP anti-HA, IB anti-M; bar marked 'Poorly expressed'; parent: est. 100; read off a plot
[13] = target: CDV M protein (strain A75/17) mutant A94S; experiment: as above; settings: 2xHA-M and FLAG-M co-expressed in HEK-293T cells; IP anti-HA, IB anti-M; parent: est. 100; read off a plot
[14] = target: CDV M protein (strain A75/17) mutant K243E; experiment: as above; settings: 2xHA-M and FLAG-M co-expressed in HEK-293T cells; IP anti-HA, IB anti-M; parent: est. 100; read off a plot
[15] = target: CDV M protein (strain A75/17) mutant D235N; experiment: as above; settings: 2xHA-M and FLAG-M co-expressed in HEK-293T cells; IP anti-HA, IB anti-M; parent: est. 100; read off a plot
[16] = target: CDV M protein (strain A75/17) mutant E89K; experiment: as above; settings: 2xHA-M and FLAG-M co-expressed in HEK-293T cells; IP anti-HA, IB anti-M; parent: est. 100; read off a plot
[17] = target: CDV M protein (strain A75/17) mutant K240Q; experiment: as above; settings: 2xHA-M and FLAG-M co-expressed in HEK-293T cells; IP anti-HA, IB anti-M; parent: est. 100; read off a plot
[18] = target: CDV M protein (strain A75/17) mutant K238E (canine distemper virus, strain A75/17); experiment: co-IP; FLAG-M and 2×HA-longlinker-M, both bearing the same mutation, cotransfected in HEK-293T; lysed 24 h posttransfection in 50 mM Tris pH 7.4, 150 mM NaCl, 0.05% NP-40, 5% glycerol, 20 mM sodium molybdate; IP with anti-HA (16B12) and Dynabeads Protein G at 4°C; blot with polyclonal anti-CDV M; coIP efficiency index = (coIP/IP)/(ratio in total lysates), normalised to wt = 100%
[19] = target: CDV M protein (strain A75/17) mutant E89D; experiment: coimmunoprecipitation (coIP efficiency index, Western blot band quantification); settings: 2xHA-M and FLAG-M co-expressed in HEK-293T cells; IP anti-HA, IB anti-M; parent: est. 100; read off a plot
[20] = target: CDV M protein (strain A75/17) mutant L96N; experiment: as above; settings: 2xHA-M and FLAG-M co-expressed in HEK-293T cells; IP anti-HA, IB anti-M; parent: est. 100; read off a plot

## canine distemper virus (CDV) matrix (M) protein, strain A75/17, wild type E242Q
[1]
  percent of parent (percent to wt): 150

## canine distemper virus (CDV) matrix (M) protein, strain A75/17, wild type G245P
[2]
  percent of parent (percent to wt): 4

## canine distemper virus (CDV) matrix (M) protein, strain A75/17, wild type Y236F
[3]
  percent of parent (percent to wt): 84

## CDV M protein (strain A75/17) mutant G245P (natural protein)
[4]
  coIP efficiency index (normalised to wt): 3.8%

## canine distemper virus (CDV) matrix (M) protein, strain A75/17, wild type L239D
[5]
  percent of parent (percent to wt): 110

## canine distemper virus (CDV) matrix (M) protein, strain A75/17, wild type E89G
[6]
  percent of parent (percent to wt): 47

## canine distemper virus (CDV) matrix (M) protein, strain A75/17, wild type P87A
[7]
  percent of parent (percent to wt): 120

## canine distemper virus (CDV) matrix (M) protein, strain A75/17, wild type E89R
[8]
  percent of parent (percent to wt): 77

## canine distemper virus (CDV) matrix (M) protein, strain A75/17, wild type E89H
[9]
  percent of parent (percent to wt): 98

## canine distemper virus (CDV) matrix (M) protein, strain A75/17, wild type K92E
[10]
  percent of parent (percent to wt): 87

## canine distemper virus (CDV) matrix (M) protein, strain A75/17, wild type E89Y
[11]
  percent of parent (percent to wt): 91

## canine distemper virus (CDV) matrix (M) protein, strain A75/17, wild type K238E
[12]
  percent of parent (percent to wt): 9

## canine distemper virus (CDV) matrix (M) protein, strain A75/17, wild type A94S
[13]
  percent of parent (percent to wt): 98

## canine distemper virus (CDV) matrix (M) protein, strain A75/17, wild type K243E
[14]
  percent of parent (percent to wt): 97

## canine distemper virus (CDV) matrix (M) protein, strain A75/17, wild type D235N
[15]
  percent of parent (percent to wt): 120

## canine distemper virus (CDV) matrix (M) protein, strain A75/17, wild type E89K
[16]
  percent of parent (percent to wt): 83

## canine distemper virus (CDV) matrix (M) protein, strain A75/17, wild type K240Q
[17]
  percent of parent (percent to wt): 100

## CDV M protein (strain A75/17) mutant K238E (natural protein)
[18]
  coIP efficiency index (normalised to wt): 9.7%

## canine distemper virus (CDV) matrix (M) protein, strain A75/17, wild type E89D
[19]
  percent of parent (percent to wt): 80

## canine distemper virus (CDV) matrix (M) protein, strain A75/17, wild type L96N
[20]
  percent of parent (percent to wt): 96
